This data set in a line: protein stability index of a GFP-peptide fusion (GPS, HEK-293T) (PSI 1-6); higher = more stable.
Where [1] appears, read: treatment: DMSO, c terminus: a fixed tail appended.
[2] abbreviates: treatment: MLN4924 1 uM, 8 h, c terminus: a fixed tail appended.

± gives the standard deviation.
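Also: 24-mer peptide tiles fused after GFP, lentivirally expressed, FACS-sorted into six equal bins by GFP/DsRed ratio, decoded by Illumina sequencing, PSI is the read-weighted mean bin number.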

On to CQALDANLDANLAFASFTSGVVRI [TLE6], for which the protein stability index runs as follows: under setting [1], 2.66 ± 0.67; under setting [2], 2.56 ± 0.37.

In the case of CRLAKGENGYGFHLNAIRGLPGSF [PDZK1], the protein stability index reads like this: under setting [1], 2.08 ± 0.69; under setting [2], 2.07 ± 0.24.

In the case of CTNTYVTGLSMIANGGAICAVTFF [OR4A15], the protein stability index is 3.25 ± 0.52 under setting [1] and 3.33 ± 0.38 under setting [2].

The sequence CVPGQVFSPDGPSRFRKAYKPEQP [LOXL2] returned a protein stability index under setting [1] of 3.17 ± 0.19 and a protein stability index under setting [2] of 3.33 ± 0.091.

With CWPMMDFLRCVTAALIYFAISITA [CMTM3], the protein stability index by setting is: under setting [1], 3.23 ± 0.49; under setting [2], 3.34 ± 0.26.

Consider CWSFYGQGRKIAEVCCTSIVYATE [KCTD13], for which the protein stability index is, setting by setting: under setting [1], 2.88 ± 0.6; under setting [2], 2.97 ± 0.79.

Take DAGEGIQCSQRMLSFSDALLSIIA [TMEM175]: the protein stability index was determined as 2.25 ± 0.091 under setting [1] and 2.35 ± 0.3 under setting [2].

For the sequence DAGPMVVHCSAGVGRTGCFIVIDA [PTPRD], the protein stability index is, setting by setting: under setting [1], 2.73 ± 1.3; under setting [2], 2.7 ± 0.76.

With DAMLKEASGPINFTMFLNLFGEKL [MYL5], the protein stability index was 2.23 ± 0.55 under setting [1] and 2.27 ± 0.28 under setting [2].

With DDDDEEEEVSEVESFILDQDDLEN [ANKRD17], the protein stability index worked out at 5.765 ± 0.056 under setting [1] and 5.68 ± 0.13 under setting [2].

For the sequence DDIKESLESEGKNSKKEEPQELLQ [ATE1], the protein stability index runs as follows: under setting [1], 5.65 ± 0.2; under setting [2], 5.61 ± 0.13.

DDLTSVTNHGYRVQVENPERFSSA [TRIM35] gave a protein stability index under setting [1] of 4.44 ± 0.24 and a protein stability index under setting [2] of 4.588 ± 0.031.

On to DEDDSEELEEDDGHGAEQAAAFPT [EHMT1], for which the protein stability index under setting [1] is 5.58 ± 0.27 and the protein stability index under setting [2] stood at 5.7 ± 0.29.

For DEEDCPNPEEYNLDEPNAESDYTY [SRPK2], the protein stability index is 5.57 ± 0.37 under setting [1] and 5.66 ± 0.15 under setting [2].

In turn, DEMLSYLPGGTTGLQLPSTLPVSG [TFE3] showed a protein stability index under setting [1] of 3.95 ± 0.26 and a protein stability index under setting [2] of 4.15 ± 0.21.

On to DEVIDVMQENITKVIERGERLDEL [VAMP4], for which the protein stability index is, setting by setting: under setting [1], 4.77 ± 0.32; under setting [2], 4.88 ± 0.28.

On to DFDLDLVPWESDIWDINNQICTVK [ATF6], for which the protein stability index under setting [1] amounted to 3.06 ± 0.3 and the protein stability index under setting [2] amounted to 3 ± 0.21.

For the sequence DFWLMVWEQKVLVIVMTTRFEEGG [PTPN9], the protein stability index was 2.69 ± 0.77 under setting [1] and 2.58 ± 0.07 under setting [2].

In the case of DGAEIAEKFVFFIGSKNGGKTTII [DYNC2LI1], the protein stability index turned out to be 2.26 ± 0.78 under setting [1] and 2.05 ± 0.54 under setting [2].

Turning to DGDDKVFRRAPSWRKRFRPREHHG [PPFIA4], the protein stability index is 3.48 ± 0.55 under setting [1] and 4.58 ± 0.14 under setting [2].

For the sequence DKPSEPASEEGSESEGSESSGRSC [SMG5], the protein stability index runs as follows: under setting [1], 5.56 ± 0.25; under setting [2], 5.6 ± 0.14.

Regarding DKTCSKTKNKSKHALRKKQLKRQK [FAM9B], the protein stability index runs as follows: under setting [1], 4.49 ± 0.21; under setting [2], 4.59 ± 0.23.

As for DKVIMKLGKTNAKAVSEMRQKIWN [DYNC2LI1], the protein stability index was 2.31 ± 0.12 under setting [1] and 2.54 ± 0.32 under setting [2].

DKVSDGVTKSPEKRSSLPRPSSIL [MAP2]: the protein stability index is 4.88 ± 0.14 under setting [1] and 4.99 ± 0.26 under setting [2].

DLDSCSRDGALLGCSLTADGLPLH [MYORG]: the protein stability index worked out at 3.32 ± 0.28 under setting [1] and 3.51 ± 0.3 under setting [2].

Regarding DLEVDMNKTEVTPRLWTTCRDGEV [ACSBG2], the protein stability index by setting is: under setting [1], 3.96 ± 0.15; under setting [2], 3.95 ± 0.064.

Take DLGHVTRISSPQVEEGDSRFLANE [WEE1]: the protein stability index is, setting by setting: under setting [1], 4.88 ± 0.29; under setting [2], 4.96 ± 0.27.

For DLLFIVDTMLEEVENKEKDSNMPH [CEP70], the protein stability index runs as follows: under setting [1], 2.29 ± 0.24; under setting [2], 2.76 ± 0.38.

For the sequence DLSGIQTSDAAFLTQWKDSLVSLV [ZER1], the protein stability index runs as follows: under setting [1], 2.37 ± 0.33; under setting [2], 2.49 ± 0.26.

In the case of DLVPAALGSLTTAQIARSVWRPW [HES6], the protein stability index by setting is: (treatment: DMSO, c terminus: native) 2.09 ± 0.17; (treatment: MLN4924 1 uM, 8 h, c terminus: native) 2.32 ± 0.43.

For the sequence DPEEAIRHDVIVSIVTAAKKDILL [PDS5B], the protein stability index reads like this: under setting [1], 2.3 ± 0.15; under setting [2], 2.54 ± 0.3.

As to DPKITCKQECLITTFQDVYFVSES [TPH1], the protein stability index is 2.5 ± 0.36 under setting [1] and 2.14 ± 0.49 under setting [2].

Regarding DQLNDGQDFAKDLLKTLYNSIKNE [PSD2], the protein stability index reads like this: under setting [1], 3.56 ± 0.21; under setting [2], 3.71 ± 0.32.

Regarding DRARRFEEALRKNTEEQLEIALAP [MTUS2], the protein stability index reads like this: under setting [1], 4.9 ± 0.22; under setting [2], 4.85 ± 0.28.

Turning to DRDGHIKLTDFGFAKKLVDRTWTL [PRKX], the protein stability index reads like this: under setting [1], 2.1 ± 0.35; under setting [2], 2.35 ± 0.42.

For the sequence DRTSLATFHEGKHNISHMSMDIAR [WDFY1], the protein stability index is, setting by setting: under setting [1], 3.54 ± 0.24; under setting [2], 3.56 ± 0.33.

Regarding DTFKVPKEMFTVGCCVFAFLVGLL [SLC6A17], the protein stability index runs as follows: under setting [1], 2.3 ± 0.51; under setting [2], 2.21 ± 0.6.

With DTMQNIESTIVELGSIFQQLAHMV [STX5], the protein stability index runs as follows: under setting [1], 2.47 ± 0.13; under setting [2], 2.52 ± 0.38.

In turn, DTTRQVQRISCFQSTVKCLTVLQR [WDR41] returned a protein stability index under setting [1] of 2.42 ± 0.33 and a protein stability index under setting [2] of 2.63 ± 0.35.

With DVQARLNRSDHGIFHSRTSLQKLS [FCHSD1], the protein stability index runs as follows: under setting [1], 3.09 ± 0.22; under setting [2], 3.16 ± 0.3.

DVRQNPCGSKACRRLFGPVDSEQL [CDKN1A] registered a protein stability index under setting [1] of 3.03 ± 0.2 and a protein stability index under setting [2] of 3.12 ± 0.28.

With DWFTSYVKNVVSGGFPIIRDQIFR [FBXO3], the protein stability index was found to be 2.61 ± 0.34 under setting [1] and 2.41 ± 0.39 under setting [2].

As for EAAGSFTSSLAQPGAYYPYERTLG [IRX6], the protein stability index was determined as 3.24 ± 0.14 under setting [1] and 3.28 ± 0.42 under setting [2].

In the case of EACMTHLHYKWIPVEDSHTADISS [DUSP5], the protein stability index by setting is: under setting [1], 3.53 ± 0.23; under setting [2], 3.63 ± 0.11.

For the sequence EAIKNEMNVMLKSSPVDLVTATDQ [IMPA1], the protein stability index is, setting by setting: under setting [1], 4.21 ± 0.11; under setting [2], 4.67 ± 0.17.

Turning to EAITSASFLEQIMAPLQPSTSRAH [FAM189A2], the protein stability index by setting is: under setting [1], 3.52 ± 0.13; under setting [2], 3.59 ± 0.22.

As to EALYAQDPSTGCYMYYFQYLSKTY [KMT5A], the protein stability index is, setting by setting: under setting [1], 3.26 ± 0.94; under setting [2], 2.42 ± 1.1.

In the case of EAVARHMLIFSLALEEPEKMGLQE [DNAAF3], the protein stability index was 2.47 ± 0.55 under setting [1] and 2.28 ± 0.27 under setting [2].

For EAVFLRAVKLYNSGDFRSSTEDME [P3H4], the protein stability index under setting [1] stood at 3.69 ± 0.36 and the protein stability index under setting [2] worked out at 3.73 ± 0.52.

Turning to EDLQDGDVRMGGSFRGAFSNSEKA [NET1], the protein stability index runs as follows: under setting [1], 4.98 ± 0.63; under setting [2], 5.252 ± 0.051.

For the sequence EDSILGDPKKLLTQHFVQENYLEY [MAGEA3], the protein stability index by setting is: under setting [1], 3.75 ± 0.36; under setting [2], 3.79 ± 0.28.

In the case of EDVTVGRRQAVAWLVAMHKAAKLL [ZFYVE21], the protein stability index runs as follows: under setting [1], 2.48 ± 0.34; under setting [2], 2.59 ± 0.35.

On to EDYSAEYIIQQGGWGTVFSLESEE [BCL2L13], for which the protein stability index is, setting by setting: under setting [1], 4.17 ± 0.29; under setting [2], 3.96 ± 0.46.

Consider EECAKWLLLNNANPNLSNRRGSTP [RIPK4], for which the protein stability index under setting [1] came out at 3.56 ± 0.17 and the protein stability index under setting [2] came out at 3.71 ± 0.067.

Take EEDKDEKSSIYESDFQIEPGFYAT [MIA2]: the protein stability index under setting [1] was 4.61 ± 0.062 and the protein stability index under setting [2] is 4.46 ± 0.4.

As to EEEEEEEGSGHSTGEDSAFQEPDS [WEE1], the protein stability index is, setting by setting: under setting [1], 5.7 ± 0.16; under setting [2], 5.62 ± 0.11.

In the case of EEFISNTLFKKIQALQKEKETLAV [CCDC6], the protein stability index is 3.27 ± 0.33 under setting [1] and 3.39 ± 0.33 under setting [2].

In the case of EEIDVDGKFIRLKNTSEQDQPMGG [LMNB1], the protein stability index was found to be 5.15 ± 0.46 under setting [1] and 5.47 ± 0.43 under setting [2].

EELNKEVASNSELVQSSRSEVTEL [KRT16]: the protein stability index worked out at 5.51 ± 0.16 under setting [1] and 5.55 ± 0.24 under setting [2].

EERLERCMSIVTSMTAGVSEREAN [INTS3]: the protein stability index runs as follows: under setting [1], 4.84 ± 0.35; under setting [2], 4.78 ± 0.29.

In the case of EFIRDILIHPELNEGLMKWENRHE [ELF3], the protein stability index by setting is: under setting [1], 2 ± 0.27; under setting [2], 2.3 ± 0.48.

Take EGASPLSERCQRQLQSLCRGLGLG [FANCE]: the protein stability index is 3.31 ± 0.13 under setting [1] and 3.02 ± 0.32 under setting [2].

Take EGEPATQRQDPAAAQEGEDEGASA [GAGE1]: the protein stability index came out at 5.55 ± 0.11 under setting [1] and 5.56 ± 0.26 under setting [2].

In turn, EGNECKKMDMSVLEISGIIMSRVN [PHTF1] came in with a protein stability index under setting [1] of 2.55 ± 0.37 and a protein stability index under setting [2] of 2.46 ± 0.31.

For EGRLERRECGLAAPRFSFNDPSGS [IRX6], the protein stability index is, setting by setting: under setting [1], 3.79 ± 0.27; under setting [2], 3.98 ± 0.2.

For EHPNLVRDHVETELLKEAELIRNI [TEKT4], the protein stability index under setting [1] was 4.6 ± 0.12 and the protein stability index under setting [2] is 4.56 ± 0.21.

Regarding EHQPDNIKALFRKGKVLAQQGEYS [FKBP8], the protein stability index was 3.97 ± 0.36 under setting [1] and 3.87 ± 0.19 under setting [2].

Turning to EIPENYNSAMPFKILYDDGKMVEE [PTPRD], the protein stability index is, setting by setting: under setting [1], 4.55 ± 0.2; under setting [2], 4.79 ± 0.071.

In the case of EISEAFTSTGFDRHTSPVFSPANP [BCL2L13], the protein stability index amounted to 3.9 ± 0.24 under setting [1] and 3.99 ± 0.25 under setting [2].

Take EITTQFLIYASYFALIAVVFLASG [SLC19A2]: the protein stability index is 3.12 ± 0.9 under setting [1] and 3.33 ± 0.31 under setting [2].

Regarding EKAHECTDCGKAFLKKSQLTEHKR [ZNF649], the protein stability index is, setting by setting: under setting [1], 3.54 ± 0.29; under setting [2], 3.81 ± 0.38.

Take EKFVFFIGSKNGGKTTIILRCLDR [DYNC2LI1]: the protein stability index runs as follows: under setting [1], 3.27 ± 0.27; under setting [2], 2.53 ± 0.22.
